Assay results as given in the nanobody polyreactivity screen of Harvey et al. (2022).

Test: yeast display, Sf9 membrane polyspecificity reagent, FACS + sequencing; frameworks hold sequencing errors
In short: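 Genes from sorted yeast were amplified by colony PCR, read by MiSeq 2 × 250 sequencing and filtered on CDR length. These cells carried a synthetic nanobody library in Saccharomyces cerevisiae BJ5465 and were sorted by FACS into low and high (top ~1%) gates on anti-HA and streptavidin fluorescence. Polyreactivity is labelled according to the gate of origin.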

| Sequence | polyreactivity (PSR sort gate) |
| --- | --- |
| QVQLVESGGGLVQAGGSLRLSCAASGRISASYAMGWYRQAPGKERELVAAITGSGGSTYYADSVKGRFTISRDNAKNTVYVQMNSLNPEDTAVYYCAADPGWAWWVLNYWVQGTQVTVSS | low polyreactivity |
| QVQVVESGGGLVQEGGSLRLSCAASGSTFGINAMGWYRPAPGKEREWVAAITSTGRTYYADSVKGRFTNSRDNAKNTVYLQMNSLKPEDTAVYYCAAVWRYKGLLLPSYYYWGQGTQVTVSS | high polyreactivity |
| QVQLVESGGGLVQAGGSLRLSCAASGSIFGYYAMGWYRQAPGKERELVAAISRRGGRTYYADSVKGRFTISRDNAKNTVYLQMNSLKPEDTAVYYCAAAVSVSASPYTGFDYWGQGTQVTVSS | high polyreactivity |
| QVQLVESGVGLVQAGGSLRLSCAASGFIFYGYAMGWYRQAPGKERELVAGNSTGGSTNYADSVKGRFTISRENAKNTVYLQMNSMKPEDTAVYDGAVVDVEQHVGHWGQVTQVTVSS | low polyreactivity |
| QVHLVESGGGLVQAGGSLRLSCAASGRIFRFYAMGWYRQAPGKERELVADISRRGGSTYYADSVKGRFTISRDNAKNTVYLQMNSLKPEDTAVYYCNARWYRTGSTYHEDYWGQGTQVTVSS | high polyreactivity |
| QVQLVESGGGLVQAGGSLRLSCAASGSIFRDNGMGWYRQAPGKERELVAAINSGDSTYYADSVKGRFTISRDNAKNTVYLQMNSLKPEDTAVYYCNADDRRALSQRQYDWYDYWGQGTQVTVSS | low polyreactivity |
| QVQLVESGGGLVQAGGSHRLSCAASGFTFDFYAMGWYRQAPGKERELVAAISKNDGTTYYADSVKGRFTISRDNAKNTVYLLLNRLKPEDSAVYYCAAESGYPVYTYVSSGDYWGQGTQVTGSS | low polyreactivity |
| QVQLVESGGGLVQAGGSLRLSCAASMGWYRQAPGKERELVAITRTTRTYYADSVKGRFTISRDNAKNTVYLQMNSLKPEDTAVYYCAAPNGPSPYWYNYWGQGTQVTVSS | low polyreactivity |
| QVQLVESGGGLVQAGGSLRLSSAASGITSYGYAMGWNRQAPGKERELVASISWTGGNTYADSVKGRFTISRDNAKNTVYLQMNSLFPEDTAVYYCNAGRSWDYWYGYDYWGQGTHVTVSS | low polyreactivity |
| QVQLVESGGGLVQAGGSLRLSCAASGSIYYTYAMGWYRPAPGKERELVAAISKRGGSTYYADSVKGRFTISRDNAKNSVYLQMNSLKPEDTAVYYCAARYNAPRGGGSDDYWGQGTQVTVSS | high polyreactivity |
| QVQLVESGGGLVQAGGSLRLSCAASGIIFYDYAMGWYREAPGKERVLVGAISRSGGSTYYADSVKGRFTISRDNAKYTVYLQMNCLKPEDTAVYYCNAKYPFRKKYYYWGQGTQVTVAS | high polyreactivity |
| QVQLVESGGGLVQAGGSLRLSCAASGRTFYVNAMGWYRQAPGKERELVARITSGGSTYYADSVKGRFTISRDKAKNTVYLQMNSVKPEDTAVYYCAADYVSLSVFSYWAWYDYWGQGTQVTVSS | low polyreactivity |
| QVQLVESGGGLVQAGGSLRLSCAASGRTFYYYYTMGWYRQAPGKERELVAAISRSGSTNYADSVKGRFTISRDNAKNTVYLQMNSLKPEDTAVYYCAKETNRVGRYHCGQGTQVTVSS | low polyreactivity |
| QVQLVESGGGLVQAGGSLRLTCAASGSIFSFYAMGWYRQAPGKERELVAAITQSDSSTYYADSVKGRFTISRDNAKNTVYLQMNSLKPVDTAVYYCAKDYYAYSDYDYWGQGTQVTVSS | low polyreactivity |
| QVQLVESGGGLVQAGGSLRLSCAASGSIFDTNAMGWYRQAPGKERELVAAIRWSGGRTYYADSVKGRFTISRDNAKITVYLQMNSLKPEDTAVYYCNKVPRTPIPYKYGYWGQGTQVTVSS | high polyreactivity |
| QVQLQESGDGLVQAVGSLRLSCAASGYISGYYYMGWYRQAPGKERELVAGIDAFGSSTNYADCVKGRFTIRRDNAKNTVYLLMNSPKPEDTAVFYCAAEFDDWDYHWYWGQGTQVTVSS | low polyreactivity |
| QVQLVESGGGLVQAGGSLRLSCVASGRTFGNKAMGWYRQAPGKERELVAAITSGGSTNYADSVKGCFTISRDNAKNTVYLQMNSLKPEDTAVYYCAAKQYRAGGGYWGQGTQVTVSS | high polyreactivity |
| QVQLVESGGGLVQAGGSLRLSCAASGFIFHVYAMGWYRQAPGKERELVARITSSGGNTFYADSVKGRFTISRDNAKNTVYLQMNSLKPEDTAVYYCAKSSIYTDYDYWGQGSQVTVSS | low polyreactivity |
| QVQLVESGGGLVQAGGSLRLSCAASGSTFTRYGMGWYRQAPGKERELGAAITTSGSSTYYADSVKGRFTISRDNAKNTVYLQMNSLKPEDTAVYYCAADWSSWGFDYWGQGTQVTVSS | low polyreactivity |
| QFQLVESGGGLVQAGGSLRLSCAASGRIFYRYAMGWYIQAPGKERELVAAITSGTSTNYADSVKGRFTISRDNAKNTVYVQMNSLKPEDTAVYYCAKRYYWKYAEYDYWGQGTLVTVSS | high polyreactivity |
| QVQLVESGGGLVQAGGSLRLSCAASGITFYYYDMGWYRLAPGKERELVAAISWSGGRTYYADSVKGRFTISRDNEKNTVYLQMNSLKPEDTAVYYCASGYYVYHFVSLYGGDYWGQGTQVTVSS | high polyreactivity |
| QVQLVESGGGLFQAGGSLRLSCAASGSTFVKYAMGRSRPAPAKERELVAAINRSGASTYYADSVKGRFTISRDNATNTVNLQMISLKPEDTAVYYCAARFSWLGYYWGQGTQETVSS | high polyreactivity |

| Sequence | polyreactivity (PSR sort gate) |
| --- | --- |
| QVQLVESGGGLVQAGGSLRLSCAASGSILLIYAMGWYRQAPGKERELVAGITRGGSTNYADSVKGRFTISRDNAKNTVYLQMNSLKPEDTAVYYCASDGGPARYLVSDRDYWGQGTQVTVSS | low polyreactivity |
| QVQLVESGGGLVQAGGSLRLSCAASGSTFKRYAMGWYRQAPGKERELVAAITNGDRTNYADSVKGRFTISRDNAKKTVYLQMNSLKPEDTAVYYCAAAYSRYTSRFYYWGQGTQVTVSS | high polyreactivity |
| QVQPVESGGGLVQAGGSLRLSCAASGLTFYRYAMGWYRQAPGKERELVAAISSGSSTYYADSVKGRFTISRDNSKNTVYLQLNILKPEDTAVYYCAARSIDAHGSRYGYWGQGTQVTVSS | high polyreactivity |
| QVQLVESGGGLVQAGGSLRLSCASSGRIFYYYAMGWYRQAPGKEREFVARNRSSGGSTYADSVKGRFTISRDNAKNTVYLQMNSLKPEDTAVYYCARDGYTAVEYDYWGQGTQVTVSS | low polyreactivity |
| QVQLVESGGGLVQAGGILSLSCAASGIISIYYVMGWYRQAPGKERELVAAITSSGARTYYADSVKGRFTISRDNAKNTVYLQMNSLKPEDTAVYYCAAKAVHLAGYDYWGQGTQVTVSS | high polyreactivity |
| QVQLVESGGGLVQAGGSLRISCAASGSSYGTYAMGWYRKAPGKERELVAAINFSGTSTYYADSVKGRFTISRDKAKHTVYLQMNRLKPEETADYYCAARFYWKYGRYDNWGQGTQVTVSS | high polyreactivity |
| QVQLVESGGGLVQAGGSLRLSCAASGSTFGPNAMGWYRQAPGKERELVATISSGGSTYYADSVKGRFTISRDNAKNTVYLQMNSLKPEDTAVYYCNVLWLRSRRKYDYWGHGTQVTVSS | low polyreactivity |
| QVQLVESGGGLVQAGGSLRFSCAASGRISPSYAMGWNRKAPGKERELVAAIYRGGSTSYADSVKGRFTISRDNAKNNVYLQMNSLKPEDTAVYYCATRGPRYRYYYWGQGTQVTVSS | high polyreactivity |
| QVQLVESGGGLVQAGGSLRLSCAASGRTFKDYAKGWYRHAPGKERELVARINGSGGSTYYADSVKGRFTISRDTAKNSVYLQMNSLKPEDTAVYYCGKDARRRTSILSGGRHYDYWGQGTQVTVSS | low polyreactivity |
| QVQLEESGGGLVQAGGSLRLSCAASGFIFRYYAMGWYRQAPGKERELVAAISWSGGSTYYADSVKGRFTISRDNAKNTVYLQMNSLKPEETAVDYGAADRYAILFYAEDYWGQGTQVTVSS | low polyreactivity |
| QVHLVESGGGLVQAGGSLRLSCAASGRIFKDNAMGWYRQAPGKERELVATIDSGGDTNYADSVKGRFTISRDNAKNTVYLQMNSLKPEDTAVYYCNTEGFLSAVYAFGYWGQGTQVTVSS | low polyreactivity |
| QVQLVESGGGLVQAGGSLRISCADSGSIFTYNAMGWYRQAPGKERELVAAITSSSGSSTYADSVKGRFTISRDNAKYTVYLQMNSLKPEDTAVYYCAAPILSFPSPYVQYDYWGQGTQVTVSS | low polyreactivity |
| QVQLVESGGGLVQAGGSLRLSCAASGSIFPLYAMGWYRQAPGKERELVADITVSGGSTYNADSVKGRFTISRDNAKNTVYLQMNSLKPEDTAVYYCNADDRSPFPDYWWYPYDYDYWGQGTQVTVSS | low polyreactivity |
| QVQLVESGGGLVQAGGSLRLSCAASGSTFYINVMGWYIQAPGKERELVAAIRRRGGSTYYADSVKGRFTISRDNEKNTVYLQMNSLKPEDTAVYYCNAFSITFYDFNSWGQGTQVTVSS | low polyreactivity |
| QVQLVESGGGLVQAGGSLRLSSAASGRIFTINAMGWYRQAPGKERELFASSRSTGGSTYYADSVKGRFTISRDNAKNTFYLQMYSLKPVDTAVYYCDAQYANSIDYRSSYRRDYWGQGTQVTVSS | low polyreactivity |
| QVQLVESGGGLVQAGGSLRLSSAASGSTFFSNAMGWYRQAPGKERELVATIRFGGGSTYADSVKGRFTISRDNAKNTVYLQMNSLKPEDTAVYYCAADDSDKRYTRSWYGYWGQGTQVAVSS | low polyreactivity |
| QVQLVESGGGLVQAGGSLRLSCAASGSTFYYYAMGWYRQAPGKERELVAAITIGGSTNYADSVKGRFTISRDNAKNTVYLQMNSLKPVDTAVYYCAADYRITYARDFDYWGQGTQVTVSS | low polyreactivity |
| QVQLVESVGGLVQAGGSLRLSCAASGRTFHYYVMGWYRQEPGKEGELVAAISRSGGNTYYADSVKGRFTISRDNAQNTVYLQMNSLKPEDTADYYCAAALSAYVKWDYYYWGQGTQVTVSS | high polyreactivity |
| QVQLVESGGGLVQAGGSLRLSCAASGSTFGGKAMGWYRQAPGKDREMVAAITGSGGRTFYADSVKGRFTISRDNAKNTVYLQMNSLKQEDTAVYSCAAYSYIYSVNYWGQVTQVTVSS | low polyreactivity |
| QVQLVESGGGIVQAGGSLRLSCAASGFTCGPYAMGWYRQAPGKERELVATIRSGDSTNYADSVKGRFTISRDNAKNTVYLQMNSLKPEDTAVYYCARDARASARRKRYDYWGQGTQVTVSS | low polyreactivity |
| QVQLVESGGGLVQAGGSLRLSSAASGGSFKRYVMVWYRQAPGKERELVAAITWSGGSTYYADSVKGRFTISRDNAKNTVYLQMNSLKPEDTAVYYCNVVTRWVTAAGYDYWGQGTQVTVSS | high polyreactivity |
